This passage reports Km and kcat results from paper PMC10812501, “Repurposing Glutathione Transferases: Directed Evolution Combined with Chemical Modification for the Creation of a Semisynthetic Enzyme with High Hydroperoxidase Activity” (Antioxidants, 2023).

Substrate in series [1]: CC(C)(OO)c1ccccc1
The experiment in a line: steady-state kinetics, coupled glutathione reductase/NADPH hydroperoxidase assay. Particulars: GSH 1.0 mM fixed, sodium phosphate 50 mM pH 7.0, 1 mM EDTA. The format is biochemical, Glycine max. An excerpt:
steady-state kinetics, coupled glutathione reductase/NADPH hydroperoxidase assay on GmGSTU4-4

Substrate in series [2]: CC(C)(OO)c1ccccc1
The description is as above. The format is biochemical, Glycine max. Particulars: Sh14 shuffled variant, GSH 1.0 mM fixed, sodium phosphate 50 mM pH 7.0, 1 mM EDTA.

B1: GmGSTU4-4 (Glycine max) (protein)
chain: MSDEVVLLDFWPSPFGMRVRIALAEKGIKYEYKEEDLRNKSPLLLQMNPVHKKIPVLIHNGKPICESLIAVQYIEEVWNDRNPLLPSDPYQRAQTRFWADYVDKKIYDLGRKIWTSKGEEKEAAKKEFIEALKLLEEQLGDKTYFGGDNLGFVDIALVPFYTWFKAYETFGTLNIESECPKFIAWAKRCLQKESVAKSLPDQQKVYEFIMDLRKKLGIE
notes: dimer; Sh14 = shuffled variant differing by four point changes (R38Q/Q46K/W114C/I183V)
For orientation: Km means the substrate concentration at which the rate is half of its maximum. A word on the kcat: it is the maximal rate divided by the concentration of active sites. On to B1, for which, in series [1], the Michaelis constant (Km) came out at 454.3 ± 83.6 µM and the turnover number (kcat) is 0.178 ± 0.0167 s⁻¹.

B2: GmGSTU4-4 (Glycine max; I183V/Q46K/R38Q/W114C) (protein)
chain: MSDEVVLLDFWPSPFGMRVRIALAEKGIKYEYKEEDLQNKSPLLLKMNPVHKKIPVLIHNGKPICESLIAVQYIEEVWNDRNPLLPSDPYQRAQTRFWADYVDKKIYDLGRKICTSKGEEKEAAKKEFIEALKLLEEQLGDKTYFGGDNLGFVDIALVPFYTWFKAYETFGTLNIESECPKFVAWAKRCLQKESVAKSLPDQQKVYEFIMDLRKKLGIE
notes: as for B1
Take B2: in series [2], the Michaelis constant (Km) is 255.8 ± 46.4 µM and the kcat is 0.593 ± 0.0617 s⁻¹.
